{"source": "paper doi:10.64898/2025.12.07.692841", "assay_in_all_cases": "crystal structure", "key": {"[1]": {"molecular_target": "PII-nitrogen regulatory protein NifI2 from Methanocaldococcus infernus (Methanocaldococcus infernus strain DSM 11812)"}, "[2]": {"molecular_target": "PII-nitrogen regulatory protein NifI2 from Methanocaldococcus infernus (Methanocaldococcus infernus strain DSM 11812)", "remark": "listed apart in the source"}, "[3]": {"molecular_target": "nitrogenase reductase NifH (dimer) from Methanocaldococcus infernus (Methanocaldococcus infernus strain DSM 11812)"}}, "note": "Like-named read-outs stand apart in the source and are kept apart here.", "data": [{"substance": "PII-nitrogen regulatory protein NifI2 from Methanocaldococcus infernus (natural protein)", "values": [{"measurement": "stoichiometry N", "setting": "[1]", "result": 2}, {"measurement": "stoichiometry N", "setting": "[2]", "result": 2}]}, {"substance": "nitrogenase reductase NifH (dimer) from Methanocaldococcus infernus (enzyme)", "values": [{"measurement": "stoichiometry N", "setting": "[3]", "result": 2}]}]}
